The record followed here is the supplement of paper PMC9233669.

Variants at the floor of the assay were thinned out.

In one data set the test system is biotinyl-Trp-oxazolone. Put plainly: self-aminoacylation, catalytic enhancement (BWO) (fold over background); higher = more active; k-Seq, kA / k0A0; sequences stand for … in GGGAAUGGAUCCACAUCUACGAAUUC…UUCACUGCAGACUUGACGAAGCUG
The method, boiled down:
(§1)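 Mutagenized RNA pools (0.43 μM; 21-nt variable region) were treated with 2–1250 μM of each biotinyl-aminoacyl-oxazolone. Conditions were 50 μL HEPES/NaCl/KCl/MgCl2/CaCl2 buffer, 5% acetonitrile, pH 6.9–7.0, room temperature, 90 minutes. Catalytic enhancement, the median kA relative to the uncatalyzed rate, was derived from streptavidin capture, qPCR and Illumina sequencing.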

A further data set deals with biotinyl-Ile-oxazolone. The data set can be described thus: self-aminoacylation, catalytic enhancement (BIO) (fold over background); higher = more active; k-Seq, kA / k0A0; sequences stand for … in GGGAAUGGAUCCACAUCUACGAAUUC…UUCACUGCAGACUUGACGAAGCUG
The method, boiled down: as §1

The test system of the next data set is biotinyl-Leu-oxazolone. The data set can be described thus: self-aminoacylation, catalytic enhancement (BLO) (fold over background); higher = more active; k-Seq, kA / k0A0; sequences stand for … in GGGAAUGGAUCCACAUCUACGAAUUC…UUCACUGCAGACUUGACGAAGCUG
The method in brief:
as §1

For a further data set, the system named is biotinyl-Val-oxazolone. The data set can be described thus: self-aminoacylation, catalytic enhancement (BVO) (fold over background); higher = more active; k-Seq, kA / k0A0; sequences stand for … in GGGAAUGGAUCCACAUCUACGAAUUC…UUCACUGCAGACUUGACGAAGCUG
The method in brief: as §1

A further data set relates to biotinyl-Met-oxazolone. Put plainly: self-aminoacylation, catalytic enhancement (BMO) (fold over background); higher = more active; k-Seq, kA / k0A0; sequences stand for … in GGGAAUGGAUCCACAUCUACGAAUUC…UUCACUGCAGACUUGACGAAGCUG
The method, boiled down: as §1

In the next data set the test system is biotinyl-Phe-oxazolone. The data set can be described thus: self-aminoacylation, catalytic enhancement (BFO) (fold over background); higher = more active; k-Seq, kA / k0A0; sequences stand for … in GGGAAUGGAUCCACAUCUACGAAUUC…UUCACUGCAGACUUGACGAAGCUG
The method in brief:
as §1

Take “CCACACUUCCAGCAAUCGGGC [Fam1B.1 aminoacylation ribozyme variant]”: the self-aminoacylation stood at 2.82 with biotinyl-Trp-oxazolone; 2 in the data set with biotinyl-Ile-oxazolone; 1.74 with biotinyl-Leu-oxazolone; 2.32 with biotinyl-Val-oxazolone; 1.72 in the data set on biotinyl-Met-oxazolone; 1.84 with biotinyl-Phe-oxazolone.

For “CCACACUUCCAGUAAUCGGUC [Fam1B.1 aminoacylation ribozyme variant]”, the self-aminoacylation in the data set with biotinyl-Trp-oxazolone was 0.792; in the data set with biotinyl-Ile-oxazolone, 1.02; in the data set with biotinyl-Leu-oxazolone it was 0.829; with biotinyl-Val-oxazolone, 1.1; in the data set on biotinyl-Met-oxazolone it was 0.791; in the data set with biotinyl-Phe-oxazolone it was 0.618.

With “CCACACUUCCCGCAAUCGGUC [Fam1B.1 aminoacylation ribozyme variant]”, the self-aminoacylation in the data set on biotinyl-Trp-oxazolone was found to be 1.37; with biotinyl-Ile-oxazolone, 1.42; in the data set on biotinyl-Leu-oxazolone, 1.73; in the data set on biotinyl-Val-oxazolone, 1.78; with biotinyl-Met-oxazolone it was 1.5; in the data set on biotinyl-Phe-oxazolone, 0.932.

On to “CCACACUUCCGGCAAUCGGUC [Fam1B.1 aminoacylation ribozyme variant]”, for which the self-aminoacylation with biotinyl-Trp-oxazolone came to 2.13; in the data set on biotinyl-Ile-oxazolone it was 1.72; with biotinyl-Leu-oxazolone it was 1.59; with biotinyl-Val-oxazolone, 2.12; in the data set on biotinyl-Met-oxazolone, 2.02; in the data set with biotinyl-Phe-oxazolone, 5.25.

Take “CCACACUUCGAGCAAUAGGUC [Fam1B.1 aminoacylation ribozyme variant]”: the self-aminoacylation was determined as 0.361 in the data set with biotinyl-Trp-oxazolone; 0.703 in the data set on biotinyl-Ile-oxazolone; 0.446 in the data set with biotinyl-Leu-oxazolone; 0.785 in the data set with biotinyl-Val-oxazolone; 0.588 with biotinyl-Met-oxazolone; 0.533 in the data set with biotinyl-Phe-oxazolone.

“CCACACUUCGAGCAAUCGAUC [Fam1B.1 aminoacylation ribozyme variant]”: the self-aminoacylation in the data set with biotinyl-Trp-oxazolone worked out at 0.387; in the data set on biotinyl-Ile-oxazolone it was 0.471; in the data set with biotinyl-Leu-oxazolone, 0.487; with biotinyl-Val-oxazolone it was 0.481; with biotinyl-Met-oxazolone, 0.361; with biotinyl-Phe-oxazolone, 0.547.

Consider “CCACACUUCGAGCAAUCGGAC [Fam1B.1 aminoacylation ribozyme variant]”, for which the self-aminoacylation in the data set with biotinyl-Trp-oxazolone came out at 0.929; in the data set with biotinyl-Ile-oxazolone it was 0.916; in the data set with biotinyl-Leu-oxazolone, 0.935; in the data set with biotinyl-Val-oxazolone, 1.67; in the data set with biotinyl-Met-oxazolone it was 0.897; in the data set with biotinyl-Phe-oxazolone it was 0.331.

As to “CCACACUUCGAGCAAUCGGUU [Fam1B.1 aminoacylation ribozyme variant]”, the self-aminoacylation in the data set with biotinyl-Trp-oxazolone was 1.65; with biotinyl-Ile-oxazolone, 1.41; with biotinyl-Leu-oxazolone, 1.1; in the data set with biotinyl-Val-oxazolone, 1.63; with biotinyl-Met-oxazolone, 1.83; in the data set on biotinyl-Phe-oxazolone, 0.768.

For “CCACACUUCGAUCAAUCGGUC [Fam1B.1 aminoacylation ribozyme variant]”, the self-aminoacylation with biotinyl-Trp-oxazolone was determined as 0.903; in the data set on biotinyl-Ile-oxazolone, 0.826; in the data set with biotinyl-Leu-oxazolone, 0.777; in the data set on biotinyl-Val-oxazolone it was 0.871; in the data set on biotinyl-Met-oxazolone it was 0.767; in the data set on biotinyl-Phe-oxazolone, 0.966.

For “CCACACUUCGGGCAAUCGGUC [Fam1B.1 aminoacylation ribozyme variant]”, the self-aminoacylation worked out at 2.23 with biotinyl-Trp-oxazolone; 2.1 in the data set on biotinyl-Ile-oxazolone; 2.48 with biotinyl-Leu-oxazolone; 3.09 in the data set with biotinyl-Val-oxazolone; 2.73 in the data set on biotinyl-Met-oxazolone; 9.3 in the data set with biotinyl-Phe-oxazolone.

“CCACACUUCUAGCAAUCGAUC [Fam1B.1 aminoacylation ribozyme variant]”: the self-aminoacylation with biotinyl-Trp-oxazolone turned out to be 0.432; with biotinyl-Ile-oxazolone it was 0.556; in the data set with biotinyl-Leu-oxazolone, 0.457; with biotinyl-Val-oxazolone, 0.716; in the data set on biotinyl-Met-oxazolone it was 0.447; with biotinyl-Phe-oxazolone it was 0.626.

In the case of “CCACACUUCUAUCAAUCGGUC [Fam1B.1 aminoacylation ribozyme variant]”, the self-aminoacylation in the data set on biotinyl-Trp-oxazolone came out at 0.659; with biotinyl-Ile-oxazolone it was 0.657; with biotinyl-Leu-oxazolone, 0.521; in the data set on biotinyl-Val-oxazolone, 0.743; in the data set with biotinyl-Met-oxazolone, 0.718; with biotinyl-Phe-oxazolone, 0.846.

As to “CCACACUUCUGGCAAUCGGUC [Fam1B.1 aminoacylation ribozyme variant]”, the self-aminoacylation was determined as 0.873 with biotinyl-Trp-oxazolone; 1.23 with biotinyl-Ile-oxazolone; 1.54 in the data set on biotinyl-Leu-oxazolone; 1.49 in the data set on biotinyl-Val-oxazolone; 1.26 in the data set with biotinyl-Met-oxazolone; 1.18 in the data set on biotinyl-Phe-oxazolone.

“CCACACUUCUUGCAAUCGGUC [Fam1B.1 aminoacylation ribozyme variant]”: the self-aminoacylation with biotinyl-Trp-oxazolone is 0.654; in the data set on biotinyl-Ile-oxazolone, 0.783; in the data set with biotinyl-Leu-oxazolone, 0.72; with biotinyl-Val-oxazolone it was 0.765; with biotinyl-Met-oxazolone, 0.76; in the data set with biotinyl-Phe-oxazolone, 0.7.

Take “CCACACUUGAAGCAACCGGUC [Fam1B.1 aminoacylation ribozyme variant]”: the self-aminoacylation in the data set with biotinyl-Trp-oxazolone worked out at 0.938; with biotinyl-Ile-oxazolone it was 0.886; with biotinyl-Leu-oxazolone it was 0.699; in the data set on biotinyl-Val-oxazolone it was 1.04; in the data set on biotinyl-Met-oxazolone it was 0.694; in the data set on biotinyl-Phe-oxazolone it was 0.953.

Turning to “CCACACUUGAAGCAAUAGGUC [Fam1B.1 aminoacylation ribozyme variant]”, the self-aminoacylation in the data set on biotinyl-Trp-oxazolone is 0.438; in the data set with biotinyl-Ile-oxazolone, 0.563; in the data set with biotinyl-Leu-oxazolone, 0.471; in the data set on biotinyl-Val-oxazolone, 0.513; in the data set with biotinyl-Met-oxazolone, 0.509; in the data set with biotinyl-Phe-oxazolone, 0.578.

“CCACACUUGAAGCAAUCGAUC [Fam1B.1 aminoacylation ribozyme variant]”: the self-aminoacylation was determined as 0.348 in the data set on biotinyl-Trp-oxazolone; 0.482 in the data set on biotinyl-Ile-oxazolone; 0.407 in the data set on biotinyl-Leu-oxazolone; 0.612 in the data set on biotinyl-Val-oxazolone; 0.436 in the data set with biotinyl-Met-oxazolone; 0.662 in the data set on biotinyl-Phe-oxazolone.

For the sequence “CCACACUUGAAGCAAUCGGGC [Fam1B.1 aminoacylation ribozyme variant]”, the self-aminoacylation in the data set on biotinyl-Trp-oxazolone is 2.26; in the data set on biotinyl-Ile-oxazolone, 1.55; in the data set with biotinyl-Leu-oxazolone, 1.57; with biotinyl-Val-oxazolone, 2.63; with biotinyl-Met-oxazolone it was 1.34; in the data set on biotinyl-Phe-oxazolone, 5.71.

For “CCACACUUGAAGCAAUCGUUC [Fam1B.1 aminoacylation ribozyme variant]”, the self-aminoacylation with biotinyl-Trp-oxazolone was determined as 0.436; in the data set with biotinyl-Ile-oxazolone it was 0.685; in the data set on biotinyl-Leu-oxazolone, 0.674; in the data set with biotinyl-Val-oxazolone, 0.825; in the data set with biotinyl-Met-oxazolone it was 0.487; in the data set with biotinyl-Phe-oxazolone, 0.863.

With “CCACACUUGAAGCAAUUGGUC [Fam1B.1 aminoacylation ribozyme variant]”, the self-aminoacylation with biotinyl-Trp-oxazolone stood at 0.386; in the data set on biotinyl-Ile-oxazolone it was 0.643; in the data set with biotinyl-Leu-oxazolone, 0.539; in the data set on biotinyl-Val-oxazolone, 0.587; with biotinyl-Met-oxazolone, 0.63; with biotinyl-Phe-oxazolone, 0.359.

For the sequence “CCACACUUGAAGCGAUCGGUC [Fam1B.1 aminoacylation ribozyme variant]”, the self-aminoacylation with biotinyl-Trp-oxazolone was 0.952; in the data set on biotinyl-Ile-oxazolone, 1.41; with biotinyl-Leu-oxazolone, 0.996; with biotinyl-Val-oxazolone, 1.39; in the data set on biotinyl-Met-oxazolone, 1.36; with biotinyl-Phe-oxazolone, 1.67.
